Drawing on EP1724347A2 (Yale University, dated 2006), this text covers Kd and Ki for 2 molecules.

As a reminder, the Kd is the free concentration of one partner at which half of the binding sites on the other are occupied at equilibrium, for simple one-to-one binding. A word on the Ki: it is the dissociation constant of the complex between target and ligand, obtained from inhibition or displacement. A low value points to higher affinity.

The target of experiment [1] is Calmodulin (Sigma) (Homo sapiens (Human), UniProt P0DP23 2-149). Nature of the experiment: fluorescence titration of the labeled peptide; buffer with 130 mM KCl, 1 mM CaCl2.
Experiment [2] concerns the target T1, Human recombinant Bcl-2 (1-205), soluble GST-fusion (human, UniProt P10415 1-205).
T1 construct: Bought from Santa Cruz Biotechnology; also called GST-Bcl-2; not shown: glutathione S-transferase (GST) fusion partner
Nature of the experiment: change of fluorescence emission of the fluorescein-labeled peptide on titration with Bcl-2, 4°C, PBS.

Experiment [3] addresses Carbonic anhydrase II (Sigma). Nature of the experiment: fluorescence titration of the labeled peptide, PBS.
Experiment [4] has as its target T2, GST-hDM2 (residues 1-188) (human, UniProt Q00987 1-188).
T2 construct: also called human oncoprotein double minute two; not shown: glutathione S-transferase (GST) fusion partner
Description: competition with 10 nM p53AD-Flu for 400 nM GST-hDM2; fraction of p53AD-Flu bound at equilibrium.

Where no end group is shown, it is not given here.

T1 sequence (P10415 1-205): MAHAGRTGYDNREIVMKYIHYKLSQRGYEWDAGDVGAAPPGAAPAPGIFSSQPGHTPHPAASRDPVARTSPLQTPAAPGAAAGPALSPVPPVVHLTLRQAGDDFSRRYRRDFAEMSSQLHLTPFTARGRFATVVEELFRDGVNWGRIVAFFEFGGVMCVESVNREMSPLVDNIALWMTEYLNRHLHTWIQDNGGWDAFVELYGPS
T2 sequence (Q00987 1-188): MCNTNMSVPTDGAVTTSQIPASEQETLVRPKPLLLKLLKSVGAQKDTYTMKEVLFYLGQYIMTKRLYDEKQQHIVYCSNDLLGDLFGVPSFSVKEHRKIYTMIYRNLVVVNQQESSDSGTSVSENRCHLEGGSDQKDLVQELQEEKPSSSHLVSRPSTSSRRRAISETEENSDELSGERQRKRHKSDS

B1: Bak peptide, fluorescein-labeled form with additional carboxy-terminal YC (peptide)
peptide: GQVGRQLAIIGDDINRYC(5‑iodoacetamidofluorescein)-NH2
notes: also called Bak BH3 peptide; Bak 72-94
B1: the Kd is 25 µM in experiment [1], 363 nM in experiment [2] and 22 µM in experiment [3].

B2: pZutshi, as competitor (not labeled) (designed binder)
chain: GPSQPTYPGDDAPVEDLIRFKFLLQWYLLAL
notes: also called p3559
Turning to B2, the Ki in experiment [4] was 722 nM.
